Laboratory results taken from patent publication WO2007059300A2 (dated 2007).

B1: fully human anti-ALK IgG A2 (antibody, V domains shown)
VH: EVQLLESGGGLVQPGGSLRLSCAASGFTFSGYTMYWVRQAPGKGLEWVSSISPSGGITFYADSVKGRFTISRDNSKNTLYLQMNSLRAEDTAVYYCARGRLFWSGYYTNRLGYAFDIWGQGTMVTVSS
VL: DIQMTQSPSSLSASVGDRVTITCRASQSIRSYLNWYQQKPGKAPKLLIYAASNLQSGVPSRFSGSGSGTDFTLSISSLQPEDFATYYCQQSYSTLWTFGQGTKVEIK
notes: Full length fully human IgG
B2: fully human anti-ALK IgG A7 (antibody, V domains shown)
VH: EVQLLESGGGLVQPGGSLRLSCAASGFTFSNYIMSWVRQAPGKGLEWVSWISSSGGFTQYADSVKGRFTISRDNSKNTLYLQMNSLRAEDTAVYYCARVIAAAGAFDYWGQGTLVTVSS
VL: DIQMTQSPSSVAASVGDRVTITCRASQDISTWLAWYQQKPGKAPKLLLSGASRLERGVPSRFSGSGSGTDFTLTIRGLQSEDFATYYCQQARSFPPTFGQGTRVEMR
notes: Full length fully human IgG
B3: fully human anti-ALK IgG B2 (antibody, V domains shown)
VH: EVQLLESGGGLVQPGGSLRLSCAASGFTFSHYMMEWVRQAPGKGLEWVSGIVPSGGLTTYADSVKGRFTISRDNSKNTLYLQMNSLRAEDTAVYYCATITMGAFDIWGQGTMVTVSS
VL: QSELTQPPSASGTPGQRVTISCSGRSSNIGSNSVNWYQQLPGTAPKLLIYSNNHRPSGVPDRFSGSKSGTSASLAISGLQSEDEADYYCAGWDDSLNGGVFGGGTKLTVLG
notes: Full length fully human IgG
B4: fully human anti-ALK IgG B6 (antibody, V domains shown)
VH: EVQLLESGGGLVQPGGSLRLSCAASGFTFSFYTMFWVRQAPGKGLEWVSSIRPSGGLTGYADSVKGRFTISRDNSKNTLYLQMNSLRAEDTAVYYCARGMQRGLDYWGQGTLVTVSS
VL: QSALSQPPSASGTPGQRVSISCSGSSSNIGSYYVYWYQHLPGTAPKLLIYRNNQRPSGVPDRFSGSKSGTSASLAISGLRSEDESDYYCAAWDDRLSAWVFGGGTKLTVLG
notes: Full length fully human IgG
B5: fully human anti-ALK IgG B8 (antibody, V domains shown)
VH: EVQLLESGGGLVQPGGSLRLSCAASGFTFSQYVMAWVRQAPGKGLEWVSSIWSSGGMTWYADSVKGRFTISRDNSKNTLYLQMNSLRAEDTAVYYCAKHGVLRYFDWSMPFDFWGQGTLVTVSS
VL: DIQMTQSPPSLSASVGDRVTITCRTSQNISSYLNWYQQKPGKAPKLLIYAASSLQSGVPSRFSGSGSGTDFTLTIRSLQPEDFAAYYCQQSYTSLTFGGGTKVEIK
notes: Full length fully human IgG
B6: fully human anti-ALK IgG C1 (antibody, V domains shown)
VH: EVQLLESGGGLVQPGGSLRLSCAASGFTFSMYPMDWVRQAPGKGLEWVSRISSSGGTTEYADSVKGRFTISRDNSKNTLYLQMNSLRAEDTAVYYCTRRFCISGVCPFEYWGQGTLVTVSS
VL: QSALTQPPSASGTPGQRVTISCSGSSSNIGSNTVNWYQQLPGTAPKLLIYSNNQRPSGVPDRFSGSKSGTSASLAISGLQSEDEADYYCQSYDNSLTNFVFGSGTKVTVLG
notes: Full length fully human IgG; also called Cl
B7: fully human anti-ALK IgG D5 (antibody, V domains shown)
VH: EVQLLESGGGLVQPGGSLRLSCAASGFTFSNYRMSWVRQAPGKGLEWVSWIYSSGGMTTYADSVKGRFTISRDNSKNTLYLQMNSLRAEDTAVYYCARERSKNYDTSVPVGFDIWGQGTMVTVSS
VL: DIQMTQSPATLSLSPGERATLSCRASQSISSFLAWYQHKPGQAPRLLIYDASNRATGIPARFSGSGSGTDFTLTISSLEPEDFAVYYCQQRTTWPPALTFGGGTKVEIK
notes: Full length fully human IgG
B8: fully human anti-ALK IgG D10 (antibody, V domains shown)
VH: EVQLLESGGGLVQPGGSLRLSCAASGFTFSKYGMHWVRQAPGKGLEWVSYIVPSGGYTIYADSVKGRFTISRDNSKNTLYLQMNSLRAEDTAMYYCAKLAGDWFDPWGQGTLVTVSS
VL: DIQMTQSPLSLPVTLGQPASISCRSSQSLVHSNGNTYLSWFHQRPGQSPRRLIHKISDRVSGVPDRFSGSGSGTDFTLKISRLEAEDVGIYYCMQGTHWPPTFGQGTKVEIK
notes: Full length fully human IgG; also called DlO; DlO antibody
B9: fully human anti-ALK IgG E1 (antibody, V domains shown)
VH: EVQLLESGGGLVQPGGSLRLSCAASGFTFSWYSMWWVRQAPGKGLEWVSSIRPSGGKTTYADSVKGRFTISRDNSKNTLYLQMNSLRAEDTAVYYCAKGLDPNGIAAAGGEGYWGQGTLVTVSS
VL: QSALTQPASVSGSPGQSITITCSGDALPKQFGYWYQQKPGQAPILVIYKDTERPSGIPERFSGSSSGTIVTLTISGVRAEDEADYYCQSADSSGNSVVFGGGTKLTVLG
notes: Full length fully human IgG; also called El
B10: fully human anti-ALK IgG E5 (antibody, V domains shown)
VH: EVQLLESGGGLVQPGGSLRLSCAASGFTFSLYPMMWVRQAPGKGLEWVSVISSSGGFTFYADSVKGRFTISRDNSKNTLYLQMNSLRAEDTAVYYCARSLAYIFDAFDIWGQGTMVTVSS
VL: DIQMTQSPGTLSLSPGERATLYCRASQSLYSSYLAWYQQRPGQAPRLLIYDTSSRATGIPDRFSGSGSGTDFTLTISRLEPEDFAVYYCQQYGTSLRTFGQGTKVEIK
notes: Full length fully human IgG

Experiments:
[1] = molecular target: T1, ALK-ECD-myc/his tag protein (human, UniProt Q9UM73 19-1038); assay: ELISA, ALK-ECD-myc/his coated at 10 μg/mL, anti-human IgG-HRP
T1 construct: Expressed in 293/293F cells and purified from conditioned medium; biotin labelled for the soluble panning; also called recombinant ALK-ECD-myc/his tag; ALK-ECD protein; not shown: Myc/His tag

[2] = molecular target: T2, ALK expressed on the cell surface (human, UniProt Q9UM73 19-1620); assay: FACS on ALK positive cells, 1 to 20 μg/mL IgG, FITC anti-human IgG
T2 construct: also called ALK protein expressed on the cell surface; ALK-expressing cells
T2 sequence (Q9UM73 other isoform, or with tags, fused parts or gaps limits assumed): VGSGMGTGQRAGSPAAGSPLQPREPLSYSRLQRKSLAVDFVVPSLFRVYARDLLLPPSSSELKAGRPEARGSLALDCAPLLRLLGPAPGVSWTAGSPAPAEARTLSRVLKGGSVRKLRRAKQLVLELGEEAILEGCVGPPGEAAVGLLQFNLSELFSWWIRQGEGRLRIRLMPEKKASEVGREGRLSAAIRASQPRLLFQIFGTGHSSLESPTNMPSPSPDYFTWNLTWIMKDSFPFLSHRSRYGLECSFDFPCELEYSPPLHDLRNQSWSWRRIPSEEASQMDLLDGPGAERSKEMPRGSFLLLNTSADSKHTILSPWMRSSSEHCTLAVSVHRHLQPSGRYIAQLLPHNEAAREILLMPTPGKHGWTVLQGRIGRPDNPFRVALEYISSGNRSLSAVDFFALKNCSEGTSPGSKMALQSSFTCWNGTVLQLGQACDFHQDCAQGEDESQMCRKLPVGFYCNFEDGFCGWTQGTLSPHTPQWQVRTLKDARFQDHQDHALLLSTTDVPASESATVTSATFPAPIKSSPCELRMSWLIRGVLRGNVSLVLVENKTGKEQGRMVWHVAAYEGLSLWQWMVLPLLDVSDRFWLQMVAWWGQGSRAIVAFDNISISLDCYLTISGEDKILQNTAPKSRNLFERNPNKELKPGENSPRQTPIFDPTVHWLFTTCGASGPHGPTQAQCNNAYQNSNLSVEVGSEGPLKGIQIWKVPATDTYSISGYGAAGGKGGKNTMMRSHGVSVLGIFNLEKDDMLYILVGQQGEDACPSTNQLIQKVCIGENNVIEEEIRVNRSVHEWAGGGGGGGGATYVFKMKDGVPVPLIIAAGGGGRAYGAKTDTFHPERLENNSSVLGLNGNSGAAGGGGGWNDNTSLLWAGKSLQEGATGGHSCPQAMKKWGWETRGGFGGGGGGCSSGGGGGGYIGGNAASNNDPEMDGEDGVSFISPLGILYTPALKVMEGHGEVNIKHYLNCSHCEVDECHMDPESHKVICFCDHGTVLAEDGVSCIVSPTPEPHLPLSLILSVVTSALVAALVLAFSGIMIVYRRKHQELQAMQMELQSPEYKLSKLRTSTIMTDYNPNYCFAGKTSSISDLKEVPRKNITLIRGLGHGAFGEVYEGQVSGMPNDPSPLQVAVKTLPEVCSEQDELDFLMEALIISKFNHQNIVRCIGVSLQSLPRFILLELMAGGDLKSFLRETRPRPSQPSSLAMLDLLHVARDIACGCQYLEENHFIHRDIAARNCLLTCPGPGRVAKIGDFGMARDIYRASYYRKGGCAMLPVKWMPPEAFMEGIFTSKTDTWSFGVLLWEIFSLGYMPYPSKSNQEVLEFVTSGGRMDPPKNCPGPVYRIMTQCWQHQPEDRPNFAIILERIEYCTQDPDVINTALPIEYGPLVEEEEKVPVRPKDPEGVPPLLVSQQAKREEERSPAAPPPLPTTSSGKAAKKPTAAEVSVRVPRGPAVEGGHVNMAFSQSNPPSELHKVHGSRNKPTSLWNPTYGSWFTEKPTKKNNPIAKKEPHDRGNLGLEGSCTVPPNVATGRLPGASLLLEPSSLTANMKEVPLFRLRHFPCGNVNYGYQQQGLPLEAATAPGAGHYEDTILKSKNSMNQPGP

T1 sequence (Q9UM73 other isoform, or with tags, fused parts or gaps): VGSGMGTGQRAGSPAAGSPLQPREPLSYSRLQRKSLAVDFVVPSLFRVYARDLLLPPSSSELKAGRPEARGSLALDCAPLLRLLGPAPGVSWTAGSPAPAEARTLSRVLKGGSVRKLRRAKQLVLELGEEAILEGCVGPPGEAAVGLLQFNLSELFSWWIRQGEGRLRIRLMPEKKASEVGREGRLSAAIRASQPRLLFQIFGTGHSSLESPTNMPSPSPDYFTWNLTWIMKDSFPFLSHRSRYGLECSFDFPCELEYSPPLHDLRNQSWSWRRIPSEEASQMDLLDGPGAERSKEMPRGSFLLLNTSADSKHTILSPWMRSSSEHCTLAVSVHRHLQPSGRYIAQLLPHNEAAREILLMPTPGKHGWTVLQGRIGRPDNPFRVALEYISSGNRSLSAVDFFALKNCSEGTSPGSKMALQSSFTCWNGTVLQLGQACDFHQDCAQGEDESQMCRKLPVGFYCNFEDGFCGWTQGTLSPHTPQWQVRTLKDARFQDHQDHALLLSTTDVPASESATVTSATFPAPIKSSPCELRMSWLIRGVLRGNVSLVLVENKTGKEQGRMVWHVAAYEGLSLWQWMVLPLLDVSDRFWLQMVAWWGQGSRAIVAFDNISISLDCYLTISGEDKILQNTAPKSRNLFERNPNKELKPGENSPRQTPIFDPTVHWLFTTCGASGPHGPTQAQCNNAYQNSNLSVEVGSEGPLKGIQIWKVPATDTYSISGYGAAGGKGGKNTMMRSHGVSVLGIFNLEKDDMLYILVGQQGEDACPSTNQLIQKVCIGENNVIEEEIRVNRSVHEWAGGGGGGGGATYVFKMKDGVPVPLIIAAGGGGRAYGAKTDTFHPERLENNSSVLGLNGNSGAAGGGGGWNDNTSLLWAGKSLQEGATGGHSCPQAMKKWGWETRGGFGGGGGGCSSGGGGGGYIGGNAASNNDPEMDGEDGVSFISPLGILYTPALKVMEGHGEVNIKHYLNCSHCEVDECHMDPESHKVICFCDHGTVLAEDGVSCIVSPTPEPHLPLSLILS

Binder | binding result [1] | binding result [2]
B1 | binds | 
B2 | binds | 
B3 | binds | 
B4 | binds | 
B5 | binds | 
B6 | binds | 
B7 | binds | 
B8 | binds | binds
B9 | binds | 
B10 | binds | 
